Values quoted from earlier work as cited in article PMC10970614.

Experiments:
[1] = biological target: integrin alpha L cytoplasmic domain (Homo sapiens) (UniProt P20701); assay: SPR
[2] = biological target: integrin alpha M cytoplasmic domain (Homo sapiens) (UniProt P11215); assay: SPR
[3] = biological target: integrin alpha X cytoplasmic domain (Homo sapiens) (UniProt P20702); assay: SPR
[4] = biological target: integrin beta 2 cytoplasmic domain (Homo sapiens) (UniProt P05107); assay: SPR
[5] = biological target: integrin beta 3 cytoplasmic domain (Homo sapiens) (UniProt P05106); assay: SPR
integrin beta 3 cytoplasmic domain (Homo sapiens), sequence (P05106 742-788): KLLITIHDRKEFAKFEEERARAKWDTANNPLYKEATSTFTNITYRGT

[6] = biological target: glycophorin (Homo sapiens) (UniProt P02724)

LtxA, sequence (P16462 whole entry): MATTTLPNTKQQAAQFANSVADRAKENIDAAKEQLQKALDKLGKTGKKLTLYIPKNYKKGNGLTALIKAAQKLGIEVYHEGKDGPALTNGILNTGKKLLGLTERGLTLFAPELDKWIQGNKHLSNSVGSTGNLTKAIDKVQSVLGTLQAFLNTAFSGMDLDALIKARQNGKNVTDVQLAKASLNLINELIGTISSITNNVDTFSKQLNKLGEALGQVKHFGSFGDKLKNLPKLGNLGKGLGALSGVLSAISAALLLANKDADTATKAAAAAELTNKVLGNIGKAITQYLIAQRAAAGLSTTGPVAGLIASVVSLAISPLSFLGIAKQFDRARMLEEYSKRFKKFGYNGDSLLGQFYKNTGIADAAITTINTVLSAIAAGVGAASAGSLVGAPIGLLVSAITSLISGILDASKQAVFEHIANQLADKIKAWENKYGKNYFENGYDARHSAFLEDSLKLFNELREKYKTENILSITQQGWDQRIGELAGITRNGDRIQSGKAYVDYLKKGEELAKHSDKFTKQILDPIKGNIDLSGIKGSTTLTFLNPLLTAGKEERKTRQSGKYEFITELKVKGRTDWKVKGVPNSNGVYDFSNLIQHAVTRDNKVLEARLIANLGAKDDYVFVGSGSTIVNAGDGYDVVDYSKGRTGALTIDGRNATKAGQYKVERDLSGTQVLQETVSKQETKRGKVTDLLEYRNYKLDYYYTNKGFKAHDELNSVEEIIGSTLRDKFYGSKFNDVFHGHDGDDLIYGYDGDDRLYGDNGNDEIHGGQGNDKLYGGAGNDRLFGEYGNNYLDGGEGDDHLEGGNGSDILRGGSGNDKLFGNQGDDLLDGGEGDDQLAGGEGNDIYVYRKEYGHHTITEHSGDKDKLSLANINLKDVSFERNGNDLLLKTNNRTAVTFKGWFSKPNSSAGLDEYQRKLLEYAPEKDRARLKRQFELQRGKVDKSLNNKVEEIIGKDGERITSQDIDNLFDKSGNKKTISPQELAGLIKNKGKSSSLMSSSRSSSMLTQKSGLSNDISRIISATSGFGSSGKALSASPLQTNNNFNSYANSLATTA
HlyA, sequence (P08715 whole entry): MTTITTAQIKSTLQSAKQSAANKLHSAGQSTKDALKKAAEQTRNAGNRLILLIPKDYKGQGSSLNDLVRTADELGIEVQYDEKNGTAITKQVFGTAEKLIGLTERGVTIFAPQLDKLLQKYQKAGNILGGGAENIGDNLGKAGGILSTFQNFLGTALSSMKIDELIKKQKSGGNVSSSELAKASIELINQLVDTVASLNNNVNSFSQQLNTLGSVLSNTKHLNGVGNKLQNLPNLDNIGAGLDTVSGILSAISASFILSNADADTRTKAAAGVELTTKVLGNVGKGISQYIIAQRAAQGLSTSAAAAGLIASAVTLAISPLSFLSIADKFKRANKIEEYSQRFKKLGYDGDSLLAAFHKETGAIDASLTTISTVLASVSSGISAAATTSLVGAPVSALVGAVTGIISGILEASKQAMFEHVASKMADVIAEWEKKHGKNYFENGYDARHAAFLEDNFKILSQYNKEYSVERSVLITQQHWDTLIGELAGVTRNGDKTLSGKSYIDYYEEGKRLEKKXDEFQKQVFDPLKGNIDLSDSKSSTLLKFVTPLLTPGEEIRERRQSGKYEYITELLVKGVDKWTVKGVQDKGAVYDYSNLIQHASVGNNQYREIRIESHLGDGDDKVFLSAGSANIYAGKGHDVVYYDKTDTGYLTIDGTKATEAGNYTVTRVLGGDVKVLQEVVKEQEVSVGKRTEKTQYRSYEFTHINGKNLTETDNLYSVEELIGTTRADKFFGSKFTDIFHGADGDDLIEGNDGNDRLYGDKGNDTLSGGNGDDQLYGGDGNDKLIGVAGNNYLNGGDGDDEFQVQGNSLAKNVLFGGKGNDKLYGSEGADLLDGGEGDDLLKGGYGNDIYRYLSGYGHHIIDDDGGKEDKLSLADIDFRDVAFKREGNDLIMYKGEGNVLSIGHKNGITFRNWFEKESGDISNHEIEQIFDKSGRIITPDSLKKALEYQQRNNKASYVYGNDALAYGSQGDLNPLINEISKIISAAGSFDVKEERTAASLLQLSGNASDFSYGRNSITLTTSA
integrin alpha M cytoplasmic domain (Homo sapiens), sequence (P11215 1129-1152): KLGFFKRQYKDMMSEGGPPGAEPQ
integrin alpha X cytoplasmic domain (Homo sapiens), sequence (P20702 1129-1163): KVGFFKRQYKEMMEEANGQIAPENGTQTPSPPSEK
integrin alpha L cytoplasmic domain (Homo sapiens), sequence (P20701 1112-1170): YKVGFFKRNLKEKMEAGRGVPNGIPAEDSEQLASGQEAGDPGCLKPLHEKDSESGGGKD
integrin beta 2 cytoplasmic domain (Homo sapiens), sequence (P05107 724-769): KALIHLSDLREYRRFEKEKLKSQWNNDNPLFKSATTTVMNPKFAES

Substance	Kd [1]	Kd [2]	Kd [3]	Kd [4]	Kd [5]	Kd [6]
LtxA (from UniProt P16462)	15 nM	400 nM	180 nM	4.2 nM	230 nM	
HlyA (from UniProt P08715)						610 nM
